According to paper PMC5493634, “Intermolecular steric inhibition of Ephexin4 is relieved by Elmo1” (Scientific Reports, 2017):

Biological target: the molecule itself
Assay: cross-linking; 293T cells transfected with Ephexin4-FLAG, cells incubated with or without 0.25 mM BMH (PBS pH 7.3, 5 mM EDTA) at room temperature for 1 h, then lysed; anti-FLAG immunoblot (Fig. 2d)

B1: Ephexin4 (full-length, wild type) (natural protein, UniProt Q5VV41 1-709, looked up)
chain: MAQRHSDSSLEEKLLGHRFHSELRLDAGGNPASGLPMVRGSPRVRDDAAFQPQVPAPPQPRPPGHEEPWPIVLSTESPAALKLGTQQLIPKSLAVASKAKTPARHQSFGAAVLSREAARRDPKLLPAPSFSLDDMDVDKDPGGMLRRNLRNQSYRAAMKGLGKPGGQGDAIQLSPKLQALAEEPSQPHTRSPAKNKKTLGRKRGHKGSFKDDPQLYQEIQERGLNTSQESDDDILDESSSPEGTQKVDATIVVKSYRPAQVTWSQLPEVVELGILDQLSTEERKRQEAMFEILTSEFSYQHSLSILVEEFLQSKELRATVTQMEHHHLFSNILDVLGASQRFFEDLEQRHKAQVLVEDISDILEEHAEKHFHPYIAYCSNEVYQQRTLQKLISSNAAFREALREIERRPACGGLPMLSFLILPMQRVTRLPLLMDTLCLKTQGHSERYKAASRALKAISKLVRQCNEGAHRMERMEQMYTLHTQLDFSKVKSLPLISASRWLLKRGELFLVEETGLFRKIASRPTCYLFLFNDVLVVTKKKSEESYMVQDYAQMNHIQVEKIEPSELPLPGGGNRSSSVPHPFQVTLLRNSEGRQEQLLLSSDSASDRARWIVALTHSERQWQGLSSKGDLPQVEITKAFFAKQADEVTLQQADVVLVLQQEDGWLYGERLRDGETGWFPEDFARFITSRVAVEGNVRRMERLRVETDV
notes: Ephexin4, guanine nucleotide-exchange factor for RhoG; full-length; also called Epx4; Ephexin4-FLAG
stoichiometry N: 3
